Laboratory results taken from US20090162358A1 (GlaxoSmithKline, published 2009).
Residue numbers refer to the chain shown, from its start. Ends that are not written are not given here. * marks the point of attachment. Biotin = O=C1N[C@H]2[C@H](CS[C@H]2CCCCC(=O)*)N1

Columns and labels:
human β-amyloid 1-40 [1] = molecular target: T1, human β-amyloid 1-40 (human, UniProt P05067 672-711); experiment: ELISA on human Aβ peptide (1-40), in combination with H11
T1 construct: domain: β-amyloid (1-40); Used in solution over captured antibody (Biacore) or coated on ELISA plates; also called human Aβ peptide (1-40); Aβ peptide (1-40)

human β-amyloid 1-40 [2] = molecular target: T1, human β-amyloid 1-40; experiment: SPR Biacore T100 at 37 C; antibody captured on anti-human IgG, Aβ 1-40 at 1-256 nM
Experimental: (§1) Anti-human IgG (Biacore BR-1008-39) was coupled to a CM5 biosensor chip by primary amine coupling. The anti-beta amyloid antibodies were captured on this surface. Beta amyloid (1-40) was then passed over at 256, 64, 16, 4 and 1 nM, with a 0 nM (ie buffer alone passed over the captured antibody surface) used for double referencing. […] The data was analysed using the 1:1 model inherent to the T100. The run was carried out at 25° C. and 37° C. using HBS-EP as the running buffer.
From this panel some constructs were also assessed for binding kinetics at physiological temperature.

human β-amyloid 1-40 [3] = molecular target: T1, human β-amyloid 1-40; experiment: SPR Biacore T100; antibody captured on anti-human IgG, Aβ 1-40 at 1-256 nM; 1:1 model
Experimental: as §1

human β-amyloid 1-40 [4] = molecular target: T1, human β-amyloid 1-40; experiment: SPR Biacore 3000; mAb captured on anti-mouse IgG, Aβ 1-40 at 4-500 nM
Experimental: (§2) Purified mouse antibody preparations were captured on a polyclonal anti-mouse IgG antibody chip surface. Freshly prepared human β-amyloid 1-40 was diluted down in HBS-EP buffer and passed over the captured antibody surface at concentrations ranging from 4-500 nM for 5 minutes. […] Regeneration was achieved via a pulse of 100 mM H₃PO₄. […] All runs were double referenced against a blank surface and blank buffer injections.

human β-amyloid 1-40 [5] = molecular target: T1, human β-amyloid 1-40; experiment: SPR Biacore 3000; mAb captured on anti-mouse IgG; triplicate run
Experimental: as §2

[6] = molecular target: T2, N-terminal coupled CGGGEDVGSNKGAIIGLMVGG (22-38) ovalbumin conjugate (coupled by the N-terminus to ovalbumin); experiment: FMAT bead immunoassay, culture supernatant
T2 peptide: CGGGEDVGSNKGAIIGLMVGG
Description: (§3) Each of the expressed antibodies contained in culture supernatant was then screened in an FMAT (Fluorescent Microvolume Assay Technology) homogenous immunoassay. 29 positive antibodies were identified from this screening cascade that were negative for ovalbumin protein passively absorbed to polystyrene beads but positive for: [0158] (i) N-terminal coupled […] (22-38) (SEQ ID No:73) ovalbumin conjugate bound to polystyrene beads, [0159] (ii) N-terminal biotinylated β-amyloid(1-40) peptide bound to streptavidin coated polystyrene beads, [0160] (iii) C-terminal biotinylated β-amyloid(1-40) peptide bound to streptavidin coated polystyrene beads and [0161] (iv) N-terminal biotinylated β-amyloid (24-34) peptide, residues 24-34 of β-amyloid being […] (SEQ ID No:8), bound to streptavidin coated polystyrene beads.

[7] = molecular target: T3, N-terminal biotinylated β-amyloid (24-34) peptide; experiment: FMAT bead immunoassay, culture supernatant
T3 peptide: Biotin-VGSNKGAIIGL
Description: as §3

ovalbumin protein = molecular target: T4, ovalbumin protein (UniProt P01012 2-386); experiment: FMAT bead immunoassay, culture supernatant
T4 sequence (looked up): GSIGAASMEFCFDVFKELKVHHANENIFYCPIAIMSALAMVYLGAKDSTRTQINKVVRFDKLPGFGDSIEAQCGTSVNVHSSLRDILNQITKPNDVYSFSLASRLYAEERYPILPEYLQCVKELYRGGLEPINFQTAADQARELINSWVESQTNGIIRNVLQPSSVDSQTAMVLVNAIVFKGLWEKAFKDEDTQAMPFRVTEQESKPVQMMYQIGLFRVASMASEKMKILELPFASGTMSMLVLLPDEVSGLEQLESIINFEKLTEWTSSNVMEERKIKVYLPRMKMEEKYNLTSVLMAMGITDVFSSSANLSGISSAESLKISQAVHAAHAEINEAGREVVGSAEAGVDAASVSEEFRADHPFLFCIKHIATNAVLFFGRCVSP
Description: as §3

human β-amyloid 1-40 [8] = molecular target: T1, human β-amyloid 1-40; experiment: SPR Biacore T100, 25 C; antibody captured on protein A, Aβ 1-40 at 2-256 nM; mean of three experiments
Experimental: The affinity of selected heavy and light chain combinations was determined using a Biacore T100 instrument. Three independent experiments were performed using humanised antibody immobilised via protein A surface Biacore chips and injection of β-amyloid 1-40 peptides. The chimeric molecule of 6F6 served as a reference molecule. For this Protein A was immobilised on a CM5 chip by primary amine coupling in accordance with manufactures recommendations. Anti-β-amyloid antibodies were captured on this surface and after a period of stabilisation human β-amyloid 1-40 was passed over at concentrations 256-2 nM in halving dilutions. A buffer injection over the captured antibody surface was used to double reference the data set in accordance with Biacore best practice. […] The work was carried out in HBS-EP at 25° C. Results are summarised in Table 13 as the mean of all three experiments.

[9] = molecular target: T5, biotinylated β-amyloid 1-40 (human Aβ1-40 peptide in solution, competition ELISA) (human, UniProt P05067 672-711, biotin, position not stated); experiment: competition ELISA: antibody pre-incubated with biotinylated Aβ 1-40, free Aβ captured on immobilised mouse 6F6 (competitor); Exp 2
T5 construct: domain: β-amyloid (1-40)
Experimental: (§4) 6F6c and humanised antibodies H₁₁L2, H11L9, H11L10, H11L12 and H11L13 were assessed for their ability to bind Aβ1-40 peptide in solution and inhibit the interaction of human Aβ1-40 peptide with mouse 6F6 monoclonal antibody in a competition ELISA. A constant concentration of biotinylated β-amyloid 1-40 was pre-incubated with serial diluted amounts of humanised 6F6 antibody variants. The mixture including complexed and free amyloid was then added to wells containing immobilised mouse 6F6 monoclonal antibody and incubated for 15 minutes at room temperature. Plates were washed and the amount of free β-amyloid that was still available for binding the immobilised parental 6F6 monoclonal antibody was then detected using streptavidin-HRP conjugate.

[10] = molecular target: T5, biotinylated β-amyloid 1-40 (human …); experiment: competition ELISA: antibody pre-incubated with biotinylated Aβ 1-40, free Aβ captured on immobilised mouse 6F6 (competitor); Exp 1
Experimental: as §4

[11] = molecular target: T6, C-terminally biotinylated peptide representing 31-42 of the β-amyloid sequence; experiment: SPR Biacore 3000, biotinylated peptide on streptavidin chip
T6 construct: Captured on a streptavidin sensorchip; also called peptide 31-42
T6 peptide: IIGLMVGGVVIAGSG-biotin
Experimental: (§5) Purified 6F6 monoclonal antibody was injected for 3 min at 8-64 nM over C-terminally biotinylated peptides representing 24-35 (SEQ ID No:10: […]), 28-39 (SEQ ID No:11: […]) and 31-42 (SEQ ID No:12: […]) of the β-amyloid sequence captured by a streptavidin coated sensorchip. The experiment was performed using a Biacore 3000 instrument. […] It may also indicate that residues 31-35 are not sufficient for binding 6F6 and residues above position 35 appear not to be involved in binding this antibody.

[12] = molecular target: T7, C-terminally biotinylated peptide representing 24-35 of the β-amyloid sequence; experiment: SPR Biacore 3000, biotinylated peptide on streptavidin chip, 6F6 at 8-64 nM
T7 construct: Captured on a streptavidin sensorchip; also called peptide 24-35
T7 peptide: VGSNKGAIIGLMGSG-biotin
Experimental: as §5

[13] = molecular target: T8, C-terminally biotinylated peptide representing 28-39 of the β-amyloid sequence; experiment: as above
T8 construct: Captured on a streptavidin sensorchip; also called peptide 28-39
T8 peptide: KGAIIGLMVGGVGSG-biotin
Experimental: as §5

mouse β-amyloid (1-40) = molecular target: T9, mouse β-amyloid (1-40) (mouse, UniProt P12023 672-711); experiment: SPR Biacore, same method as Table 2
T9 construct: domain: β-amyloid (1-40)
T9 peptide (looked up): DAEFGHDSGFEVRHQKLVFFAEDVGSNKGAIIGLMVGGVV
Experimental: as §2
(§6) The same Biacore method was also used to investigate binding of 6F6 to human and mouse β-amyloid (1-40) and β-amyloid (1-42). 6F6 bound to all of these peptides with similar values.

mouse β-amyloid (1-42) = molecular target: T10, mouse β-amyloid (1-42) (mouse, UniProt P12023 672-713); experiment: SPR Biacore, same method as Table 2
T10 construct: domain: β-amyloid (1-42)
T10 peptide (looked up): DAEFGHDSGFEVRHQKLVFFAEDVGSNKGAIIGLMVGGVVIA
Experimental: as §2, §6

T5 sequence (P05067 672-711 limits assumed): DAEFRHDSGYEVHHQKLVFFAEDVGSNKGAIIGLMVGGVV

B1: straight graft light chain L0 in combination with H11 (antibody, V domains shown)
VH: QVQLVQSGAEVKEPGASVKVSCKGSGFNIKVYYVHWLRQLPGKGLEWIGRIDPENGETIYTPKFQDKATLTVDTSTDTAYMELSSLRSEDTAVYYCVSSGYWGQGTLVTVSS
VL: DIVMTQSPLSLPVTPGEPASISCRSSKSLLHRNGITYLYWYLQKPGQSPQLLIYQMSNLASGVPDRFSGSGSGTDFTLKISRVEAEDVGVYYCAQNLELWTFGQGTKVEIKR
notes: Kabat positions; after CDRL1 the count on the entry is Kabat + 5; also called H11L0
- binding result (human β-amyloid 1-40 [1]): binds

B2: humanised de-immunised construct H50L20 (antibody, human IgG1, V domains shown)
VH: B1 VH with K23T, K30H, G42E
VL: DIVMTQSPLSNPVTPGEPASISCRSSKSLLHRNGITYLYWYLQKPGQSPQLLIYQMDHLASGVPDRFSSSGSGTDFTLKISRVEAEDVGVYYCAQNLELWTFGQGTKVEIK
- Kd (human β-amyloid 1-40 [2]): 3.5 nM
- Kd (human β-amyloid 1-40 [3]): 2.5 nM

B3: humanised VL variant L14 in combination with H11 (antibody, V domains shown)
VH: B1 VH
VL: B1 VL with S48P, Q104G
notes: Kabat positions; after CDRL1 the count on the entry is Kabat + 5; also called H11L14
- binding result (human β-amyloid 1-40 [1]): binds

B4: humanised de-immunised construct H48L21 (antibody, human IgG1, V domains shown)
VH: B1 VH with K30H, G42E
VL: B2 VL with I35K, H58N
- Kd (human β-amyloid 1-40 [2]): 2.69 nM
- Kd (human β-amyloid 1-40 [3]): 2.01 nM

B5: humanised de-immunised construct H51L20 (antibody, human IgG1, V domains shown)
VH: B1 VH with K30H, V31T, G42E
VL: B2 VL
- Kd (human β-amyloid 1-40 [2]): 3.89 nM
- Kd (human β-amyloid 1-40 [3]): 2.23 nM

B6: humanised de-immunised construct H50L21 (antibody, human IgG1, V domains shown)
VH: B1 VH with K23T, K30H, G42E
VL: B2 VL with I35K, H58N
- Kd (human β-amyloid 1-40 [2]): 2.7 nM
- Kd (human β-amyloid 1-40 [3]): 2.17 nM

B7: humanised de-immunised construct H51L21 (antibody, human IgG1, V domains shown)
VH: B1 VH with K30H, V31T, G42E
VL: B2 VL with I35K, H58N
- Kd (human β-amyloid 1-40 [2]): 2.9 nM
- Kd (human β-amyloid 1-40 [3]): 2.05 nM

B8: 5D1 mouse monoclonal antibody (antibody, V domains shown)
VH: EVQLQQSGAELVKPGASVKLSCTGSGFNIKVYYVHWLKQLTEQGLEWIGRIDPENGETKYAPKFQDKATLTVDTSSNTAYLHLSSLTSEDTAVYYCVSSGYWGQGTTLTVSS
VL: B2 VL with P8A, L9F, P15L, E17T, P18S, D57S, H58N, S68T, Q104G, V108L
notes: Mouse hybridoma antibody
- Kd (human β-amyloid 1-40 [4]): 2.57 nM
- koff (human β-amyloid 1-40 [4]): 0.000147 s⁻¹
- kon (human β-amyloid 1-40 [4]): 57000 M⁻¹ s⁻¹
- Kd (human β-amyloid 1-40 [5]): 2.05 nM
- koff (human β-amyloid 1-40 [5]): 0.000135 s⁻¹
- kon (human β-amyloid 1-40 [5]): 65800 M⁻¹ s⁻¹
- binding result [6]: binds
- binding result [7]: binds
- binding result (ovalbumin protein): no binding

B9: chimeric 6F6 antibody (6F6c) (antibody, human IgG1, V domains shown)
VH: B8 VH with K13E, K59I, A61T, H82Q, T91A, T107L, L108V
VL: DIVMTQSAFSNPVTLGTSASISCRSSKSLLHRNGITYLYWYLQKPGQPPQLLIYQMSNLASGVPDRFTSSGSGTDFTLKISRVEAEDVGVYYCAQNLELWTFGGGTKLEIK
notes: Murine V regions on human IgG1 (Fc disabled) and human C kappa; also called 6F6 Chimera (pur); chimeric molecule of 6F6
- Kd (human β-amyloid 1-40 [8]): 3.74 nM
- IC50 [9]: 0.451 mg/L
- IC50 [10]: 0.566 mg/L
- Kd (human β-amyloid 1-40 [3]): 1 nM

B10: 6F6 murine monoclonal antibody (antibody, mouse IgG2a, V domains shown)
VH: B8 VH with K13E, K59I, A61T, H82Q, T91A
VL: B9 VL
notes: also called 6F6 parental monoclonal antibody; mouse 6F6 monoclonal antibody
- binding result [11]: no binding (tested: 8-64 nM)
- Kd (human β-amyloid 1-40 [4]): 0.62 nM
- koff (human β-amyloid 1-40 [4]): 6.57e-05 s⁻¹
- kon (human β-amyloid 1-40 [4]): 106000 M⁻¹ s⁻¹
- Kd (human β-amyloid 1-40 [5]): 1.02 nM
- koff (human β-amyloid 1-40 [5]): 9.4e-05 s⁻¹
- kon (human β-amyloid 1-40 [5]): 99300 M⁻¹ s⁻¹
- binding result [12]: binds
- binding result [13]: binds
- binding result [6]: binds
- binding result [7]: binds
- binding result (ovalbumin protein): no binding
- binding result (mouse β-amyloid (1-40)): binds
- binding result (mouse β-amyloid (1-42)): binds
